Reference: IntAct's records for PubMed 10887173

B1: 14-3-3 protein zeta/delta (Homo sapiens), P63104 (parent)
chain: MDKNELVQKAKLAEQAERYDDMAACMKSVTEQGAELSNEERNLLSVAYKNVVGARRSSWRVVSSIEQKTEGAEKKQQMAREYREKIETELRDICNDVLSLLEKFLIPNASQAESKVFYLKMKGDYYRYLAEVAAGDDKKGIVDQSQQAYQEAFEISKKEMQPTHPIRLGLALNFSVFYYEILNSPEKACSLAKTAFDEAIAELDTLSEESYKDSTLIMQLLRDNLTLWTSDTQGDEAEAGEGGEN

Variants of: B1
Settings: with vime_chlae VIM

Row | effect of a mutation on the interaction | Variant
1 | decreasing interaction | MDKNKLVQKAKQQRQAERYDDMAACMKSVTEQGAELSNEERNLLSVAYKNVVGARRSSWRVVSSIEQKTEGAEKKQQMAREQRENIQTELRDICNDVLSLLEKFLIPNASQAESKVFYLKMKGDYYRYLAEVAAGDDKKGIVDQSQQAYQEAFEISKKEMQPTHPIRLGLALNFSVFYYEILNSPEKACSLAKTAFDEAIAELDTLSEESYKDSTLIMQLLRDNLTLWTSDTQGDEAEAGEGGEN [E5K;L12Q;A13Q;E14R;Y82Q;K85N;E87Q]
